Measurements published in patent US20160038588A1 (Amgen, published 2016).
Values belong to the binder of their own block, whether it stands above or below them. Where no end group is shown, it is not given here.

What was measured:
[1] = molecular target: T1, recombinant mature myostatin (human, produced in E. coli) (human, UniProt O14793 267-375); experiment: cell-based or functional assay
T1 sequence (looked up): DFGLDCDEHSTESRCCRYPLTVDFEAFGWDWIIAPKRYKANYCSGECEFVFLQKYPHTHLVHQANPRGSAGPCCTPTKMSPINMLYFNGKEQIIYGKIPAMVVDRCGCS

[2] = molecular target: T1, recombinant mature myostatin (human, …); experiment: cell-based or functional assay; remark: listed apart in the source

IC50, C2C12 pMARE-luc assay [1]: ~83 nM
B1: recombinant human activin receptor IIB/Fc chimera (R&D Systems) (Fc fusion, UniProt Q13705 19-134, looked up, not shown: a dimerising Fc or GST)
chain: SGRGEAETRECIYYNANWELERTNQSGLERCEGEQDKRLHCYASWRNSSGTIELVKKGCWLDDFNCYDRQECVATEENPQVYFCCCEGNFCNERFTHLPEAGGPEVTYEPPPTAPT

IC50 (read off the curve) [2]: ~20 µM
Binder: QGHCTRWPWMCPPY (also: cysteine-constrained, bridge type not given here) [TN8-19 peptide]
